Substrate in series [1]: O=CCCC(=O)C(=O)O
The series is described as follows: 2-ketoacid decarboxylase Kivd wild type, coupled assay, NADPH oxidation at 340 nm. It counts as biochemical. The conditions noted are these: other: coupled assay, substrate from 0.1-10 mM L-arabonate, 1 mM NADPH, 0.5 mM ThDP, pH 7.5, 10 nM Kivd, 30.0 °C. On the procedure:
(§1) 2-Ketoacid decarboxylase (Kivd) and alcohol dehydrogenase (YqhD): The decarboxylase activity of Kivd was measured by a coupled enzymatic assay with AraC, AraD, and YqhD (Zhang et al., 2011. ChemSusChem 4:1068-1070). Excess AraC, AraD, and YqhD was used and the oxidation of NADPH was monitored at 340 nm. The assay mixture contained 1 mM NADPH, 1 μM AraC, 1 μM AraD, and 100 nM YqhD and 0.1-10 mM L-arabonate in assay buffer (100 mM Tris-HCl buffer, pH 7.5, 5 mM MgSO4, 0.5 mM ThDP) with a total volume of 0.1 ml. The mixture was incubated at 30° C. for one hour and 10 nM Kivd was added. The dehydrogenase activity of YqhD was assayed according to NADPH initial consumption rates in a coupled assay. The assay mixture contained 1 mM NADPH, 100 nM Kivd, 1 μM AraC, 1 μM AraD, and 0.1-10 mM L-arabonate in 100 μl of 100 mM Tris-HCl buffer (pH 7.5) with 5 mM MgSO4. The mixture was first incubated at 30° C. for one hour. Afterwards, 10 nM YqhD was added and the NADPH consumption rate was monitored.

Substrate in series [2]: O=C(O)C(=O)C[C@H](O)CO
Described as above. It counts as biochemical. To be noted: other: wild type; BTO substrate; pH 7.5; 30.0 °C. On the procedure: as §1

Substrate in series [3]: O=CCCC(=O)C(=O)O
The series is described as follows: 2-ketoacid decarboxylase Kivd V461I mutant, coupled assay, NADPH oxidation at 340 nm. It is filed as biochemical, Lactococcus lactis. The conditions noted are these: other: V461I mutant, coupled assay, pH 7.5, 30.0 °C. On the procedure: as §1

Substrate in series [4]: O=C(O)C(=O)C[C@H](O)CO
Described as above. It is filed as biochemical, Lactococcus lactis. The conditions noted are these: other: V461I mutant; BTO substrate; pH 7.5; 30.0 °C. On the procedure:
as §1

Changes are numbered by the printed parent chain. Numbers in names are those of the source.

For orientation: Km means the concentration of substrate that gives half-maximal velocity. For orientation: kcat means the maximal rate divided by the concentration of active sites. The term kcat/Km denotes the second-order rate constant that governs catalysis at low substrate concentration.

B1: Lactococcus lactis 2-ketoacid decarboxylase Kivd, wild type (Lactococcus lactis subsp. lactis) (protein)
chain: MYTVGDYLLDRLHELGIEEIFGVPGDYNLQFLDQIISHKDMKWVGNANELNASYMADGYARTKKAAAFLTTFGVGELSAVNGLAGSYAENLPVVEIVGSPTSKVQNEGKFVHHTLADGDFKHFMKMHEPVTAARTLLTAENATVEIDRVLSALLKERKPVYINLPVDVAAAKAEKPSLPLKKENSTSNTSDQEILNKIQESLKNAKKPIVITGHEIISFGLEKTVTQFISKTKLPITTLNFGKSSVDEALPSFLGIYNGTLSEPNLKEFVESADFILMLGVKLTDSSTGAFTHHLNENKMISLNIDEGKIFNERIQNFDFESLISSLLDLSEIEYKGKYIDKKQEDFVPSNALLSQDRLWQAVENLTQSNETIVAEQGTSFFGASSIFLKSKSHFIGQPLWGSIGYTFPAALGSQIADKESRHLLFIGDGSLQLTVQELGLAIREKINPICFIINNDGYTVEREIHGPNQSYNDIPMWNYSKLPESFGATEDRVVSKIVRTENEFVSVMKEAQADPNRMYWIELILAKEGAPKVLKKMGKLFAEQNKS
notes: also expressed from pBDO-5 in E. coli fermentation (A5)
Consider B1, for which, in series [1], the Km was found to be 4.8 mM and the kcat is 4.8 s⁻¹. The kcat/Km in series [2] is 7700 M⁻¹ s⁻¹.

B2: Lactococcus lactis 2-ketoacid decarboxylase Kivd variant V461I (Lactococcus lactis subsp. lactis; V461I) (protein)
chain: B1 chain with V461I
notes: coupled with AraC/AraD/YqhD
On to B2, for which the kcat/Km in series [3] stood at 2500 M⁻¹ s⁻¹; in series [4], 500 M⁻¹ s⁻¹.

These data come from US20170137855A1, “RECOMBINANT CELLS AND METHODS FOR NONPHOSPHORYLATIVE METABOLISM” (REGENTS OF THE UNIVERSITY OF MINNESOTA, priority 2015, published 2017).
